Assay results taken from patent EP1086377B1, “A METHOD OF IDENTIFYING LIGANDS TO RNA […] 70 SUBUNIT” (AstraZeneca AB, priority 1998, dated 1999).

Key:
[1] = molecular target: T1, Truncated sigma^70 (C-terminal 99 amino acids) (Escherichia coli, UniProt P00579); assay: Competitive ELISA for quantification of AsiA-sigma^70 interaction (GST-AsiA binding to immobilised truncated sigma^70); parameters: species or system E. coli
T1 construct: made in house; GST-AsiA from E. coli DH5alpha / pARC 8105
Experimental: A solution of the protein product (200 pmoles/ml) in a pH 7.5 buffer comprising Tris HCl (10 mM) and sodium chloride (50 mM) was prepared and 200 µl of solution were added per well of a nickel-coated microtitre plate, followed by incubation at room temperature for a period of two hours. The microtitre plate was then washed 5 times with the buffer solution and then incubated at 37°C for one hour with a solution of bovine serum albumin (3% w/v) in the above buffer. After washing 5 times with phosphate buffered saline (PBS) with "Tween" 20 (polyoxyethylene (20) sorbitan monolaurate, 0.5% v/v), the GST-AsiA fusion protein prepared as described in Example 4.1. above (100 ng) was added together with a defined amount of a putative inhibitor of truncated sigma^70 protein (corallopyronin, myxopyronin or ripostatin) and incubated at 37°C for one hour. Further washing (5 times) with PBS-"Tween" 20 was carried out and then anti-GST antibodies (1:2000) raised in rabbits were added to the wells, with incubation at 37°C for one hour. The previous washing step was repeated and thereafter anti-rabbit IgG-horse radish peroxidase (HRP) conjugate (1:2000) was added and incubated at 37°C for one hour. A final wash with PBS-"Tween" 20 was carried out, before adding the HRP enzyme substrate, tetramethyl benzidene/ H2O2. The enzymic reaction (resulting in the development of colour) was stopped after a suitable period of time by the addition of 6N H2SO4 and the microtitre plate was "read" in a spectrophotometer using light of wavelength (λ) 450 nm.

[2] = molecular target: Truncated sigma^70 (C-terminal 99 amino acids of E. coli sigma^70), (His)5-tagged (Escherichia coli) (UniProt P00579); assay: ELISA; His-tagged truncated sigma^70 on nickel plate, GST-AsiA detected with rabbit anti-GST and anti-rabbit IgG-HRP, OD 450 nm; reference without competitor
Chain of Truncated sigma^70 (C-terminal 99 amino acids of E. coli sigma^70), (His)5-tagged (Escherichia coli) (P00579 515-613): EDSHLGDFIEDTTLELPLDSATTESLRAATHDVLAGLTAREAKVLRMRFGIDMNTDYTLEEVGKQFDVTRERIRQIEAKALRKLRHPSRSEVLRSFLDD

[3] = molecular target: Truncated sigma^70 (C-terminal 99 amino acids of E. coli sigma^70), (His)5-tagged (Escherichia coli) (UniProt P00579); assay: competitive ELISA; His-tagged truncated sigma^70 on nickel plate, free AsiA 7 µg/ml competing with GST-AsiA 500 ng/ml; the value is the GST-AsiA binding that remains
[4] = molecular target: Salmonella typhimurium RNA polymerase sigma^70 subunit (Salmonella typhimurium) (UniProt P0A2E3); assay: cell-based or functional assay
Chain of Salmonella typhimurium RNA polymerase sigma^70 subunit (Salmonella typhimurium) (P0A2E3 whole entry): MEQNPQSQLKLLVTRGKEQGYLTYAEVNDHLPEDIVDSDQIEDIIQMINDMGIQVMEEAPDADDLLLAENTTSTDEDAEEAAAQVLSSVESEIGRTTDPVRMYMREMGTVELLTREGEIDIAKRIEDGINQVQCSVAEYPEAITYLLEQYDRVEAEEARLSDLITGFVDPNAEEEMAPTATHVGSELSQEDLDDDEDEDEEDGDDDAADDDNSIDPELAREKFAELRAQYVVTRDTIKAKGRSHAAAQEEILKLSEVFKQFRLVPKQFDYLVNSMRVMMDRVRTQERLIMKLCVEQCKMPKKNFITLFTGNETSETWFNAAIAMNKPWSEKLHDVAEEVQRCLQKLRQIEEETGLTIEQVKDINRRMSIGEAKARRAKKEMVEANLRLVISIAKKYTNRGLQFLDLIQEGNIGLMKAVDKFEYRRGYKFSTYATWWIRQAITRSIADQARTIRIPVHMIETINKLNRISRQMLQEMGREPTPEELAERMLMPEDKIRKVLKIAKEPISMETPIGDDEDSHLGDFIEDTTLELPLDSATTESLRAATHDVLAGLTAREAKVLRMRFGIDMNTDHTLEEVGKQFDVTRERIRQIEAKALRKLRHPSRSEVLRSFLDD

[5] = molecular target: E. coli RNA polymerase sigma^70 subunit (Escherichia coli) (UniProt P00579); assay: cell-based or functional assay
Chain of E. coli RNA polymerase sigma^70 subunit (Escherichia coli) (P00579 whole entry): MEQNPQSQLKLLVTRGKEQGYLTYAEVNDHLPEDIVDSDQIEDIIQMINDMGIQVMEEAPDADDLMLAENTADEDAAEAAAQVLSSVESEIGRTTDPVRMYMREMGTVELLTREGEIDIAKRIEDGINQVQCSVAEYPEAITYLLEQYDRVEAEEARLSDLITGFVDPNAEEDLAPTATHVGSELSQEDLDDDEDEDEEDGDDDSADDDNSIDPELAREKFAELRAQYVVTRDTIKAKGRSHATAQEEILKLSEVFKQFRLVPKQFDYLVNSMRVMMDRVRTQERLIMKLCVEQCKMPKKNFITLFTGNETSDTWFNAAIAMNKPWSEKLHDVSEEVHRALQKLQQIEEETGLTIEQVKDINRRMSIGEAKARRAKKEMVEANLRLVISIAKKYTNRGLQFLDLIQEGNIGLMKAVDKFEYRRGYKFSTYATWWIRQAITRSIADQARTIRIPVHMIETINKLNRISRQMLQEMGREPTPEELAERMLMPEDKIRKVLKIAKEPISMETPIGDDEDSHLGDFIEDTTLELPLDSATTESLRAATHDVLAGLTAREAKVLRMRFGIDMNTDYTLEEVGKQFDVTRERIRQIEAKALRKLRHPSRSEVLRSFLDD

[6] = GST-AsiA 500 ng/ml + competitor at 30 µg/ml

T1 sequence (P00579 515-613): as the sequence (P00579 515-613) above
Chain of GST-AsiA fusion protein (glutathione-S-transferase fused to the N-terminus of the bacteriophage T4 a (P08515 whole entry, the tested form may be a part): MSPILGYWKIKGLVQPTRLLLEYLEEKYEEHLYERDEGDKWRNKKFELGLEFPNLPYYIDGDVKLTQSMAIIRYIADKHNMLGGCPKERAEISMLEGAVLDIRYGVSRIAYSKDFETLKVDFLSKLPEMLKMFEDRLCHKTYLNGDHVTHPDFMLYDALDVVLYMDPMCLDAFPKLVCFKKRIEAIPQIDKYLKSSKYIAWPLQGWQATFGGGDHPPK

`C/C(=C\Cc1ccccc1)CCC(=O)C[C@H]1C[C@H](O)C/C(C)=C/C/C=C/C/C(CC(=O)O)=C\C(=O)O1` [ripostatin] was tested, and the “% Binding to truncated sigma^70” value ([1]; GST-AsiA 500 ng/ml + competitor at 1 µg/ml) was 100%, the “% Binding to truncated sigma^70” value ([1]; GST-AsiA 500 ng/ml + competitor at 10 µg/ml) was 55% and the “% Binding to truncated sigma^70” value ([1]; GST-AsiA 500 ng/ml + competitor at 100 µg/ml) was 1.5%.
myxopyronin was tested, and the “% Binding to truncated sigma^70” value [1, 6] was 56%.
With `C/C=C/C/C=C(\C)C(O)CC/C(C)=C/C=C(\C)C(=O)c1c(O)cc([C@H](C)CC/C=C/NC(=O)OC)oc1=O` (some centres unmarked) [corallopyronin] the “% Binding to truncated sigma^70” value [1, 6] was 69%.
Molecule “GST-AsiA fusion protein (glutathione-S-transferase fused to the N-terminus of the bacteriophage T4 a (from UniProt P08515 1-218)” has a % Binding to truncated sigma^70 [2] of 100%.
Molecule “AsiA protein (anti-sigma^70 factor of bacteriophage T4, asiA gene product), released from GST-AsiA by Factor Xa” has a % Binding to truncated sigma^70 [3] of 12%, a [^3H]UTP (nmol) incorporated: E. coli RNA polymerase + 0.1 µg AsiA + 4 µg S. typhimurium sigma^70 (reactivation) [4] of 3 nmol and a [^3H]UTP (nmol) incorporated: E. coli RNA polymerase + 0.1 µg AsiA + 4 µg S. typhimurium sigma^70 preincubated with 0.1 µg AsiA [4] of 0.98 nmol. It also gave a [^3H]UTP (nmol) incorporated: E. coli RNA polymerase + 0.1 µg AsiA (control without AsiA 2.1), E. coli sigma^70 series [5] of 0.57 nmol, a [^3H]UTP (nmol) incorporated: E. coli RNA polymerase + 0.1 µg AsiA (control without AsiA 2.3), S. typhimurium sigma^70 series before sigma^70 is added [5] of 0.34 nmol and a [^3H]UTP (nmol) incorporated: E. coli RNA polymerase + 0.1 µg AsiA + 4 µg E. coli sigma^70 (reactivation) [5] of 2.3 nmol. The [^3H]UTP (nmol) incorporated: E. coli RNA polymerase + 0.1 µg AsiA + 4 µg E. coli sigma^70 preincubated with 0.1 µg AsiA [5] was 0.68 nmol and the inhibition of E. coli RNA polymerase activity by 0.07 µg AsiA, T4 DNA template [5] was > 80%.
